Data taken from patent CN112159477A (UNIV SHANGHAI MEDICAL & HEALTH SCIENCES, dated 2021).

Tests used:
rhMICA-His蛋白 [1] = target: T1, rhMICA-His蛋白 (human, UniProt Q29983 24-308); test: BLI (Fortebio Octet Red96), rhNKG2D-Fc captured on AHC sensor, rhMICA-His as analyte
T1 construct: Control protein; also called MICA蛋白; not shown: His tag
T1 sequence (looked up): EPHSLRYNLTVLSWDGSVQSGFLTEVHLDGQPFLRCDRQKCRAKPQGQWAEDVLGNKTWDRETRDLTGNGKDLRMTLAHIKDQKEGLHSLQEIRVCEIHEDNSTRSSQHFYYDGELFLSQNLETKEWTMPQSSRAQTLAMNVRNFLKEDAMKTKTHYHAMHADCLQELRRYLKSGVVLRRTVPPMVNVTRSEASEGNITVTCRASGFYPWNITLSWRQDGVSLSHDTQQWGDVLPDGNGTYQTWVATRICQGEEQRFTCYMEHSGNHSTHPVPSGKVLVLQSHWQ

rhMICA-His蛋白 [2] = target: T1, rhMICA-His蛋白; test: BLI (Fortebio Octet Red96), rhNKG2D-Fc captured on AHC sensor, rhMICA-His 1.23-11.1 nM as analyte

B1: rhNKG2D-Fc蛋白 (Fc fusion, human, UniProt P26718 78-216, looked up)
chain: FLNSLFNQEVQIPLTESYCGPCPKNWICYKNNCYQFFDESKNWYESQASCMSQNASLLKVYSKEDQDLLKLVKSYHWMGLVHIPTNGSWQWEDGSILSPNLLTIIEMQKGDCALYASSFKGYIENCSTPNTYICMQRTV
notes: the order of the parts follows the printed name only; not shown: Fc part (captured by an anti-human IgG Fc sensor)
Work on B1 yielded a koff (rhMICA-His蛋白 [1]) of 0.0015 s⁻¹, a kon (rhMICA-His蛋白 [1]) of 1.19e+06 M⁻¹ s⁻¹ and a Kd (rhMICA-His蛋白 [2]) of 1.26 nM.
